Measurements: patent US20240327471A1, “IL-10 INDUCING POLYPEPTIDES AND USES THEREOF” (ENTEROME S.A., priority 2021, published 2024)

How the values were obtained:
monocytes = test: IL-10 secretion from monocytes, NAT_29 sequence variants, co-stimulated with LPS (AlphaLISA); type: cell-based, human; conditions: 1 μM; LPS 100 ng/ml; 24 h; monocytes from six donors
Protocol: In order to investigate the impact of different sequence variations of NAT_29, monocytes from six donors were obtained as described in Example 3 and stimulated with 1 μM NAT_29 polypeptide (SEQ ID NO: 1) or a sequence variant thereof containing eight mutations (NAT_38; SEQ ID NO: 9), co-stimulated with 100 ng/ml LPS (NAT_38 comparison) from E. coli O111: B4 (InvivoGen, tlrl-eblps) and placed in humidified CO2 incubator at 5% CO2/37° C. for 24 h. IL-10 secretion was measured at 24 hours by AlphaLISA® on cell supernatants according to the supplier's protocol and read on an Envision plate reader (Perkin Elmer).
For comparison with NAT_29 (SEQ ID NO: 1), a polypeptide differing from the NAT_29 sequence by eight (8) amino acid positions was chosen (NAT_38; SEQ ID NO: 9). Namely, in SEQ ID NO: 9 • (i) 110 of SEQ ID NO: 1 is deleted, • (ii) D13 in SEQ ID NO: 1 is substituted with P (D13P), • (iii) a Q is added between R14 and G15 of SEQ ID NO: 1, • (iv) T16 in SEQ ID NO: 1 is substituted with Y (T16Y), • (v) K17 in SEQ ID NO: 1 is substituted with Q (K17Q), • (vi) S22 in SEQ ID NO: 1 is substituted with G (S22G), • (vii) an I is added between F25 and Y26 of SEQ ID NO: 1, and • (viii) P28 of SEQ ID NO: 1 is deleted.

human PBMCs = test: Dose-response of purified microbiota proteins, IL-10 secretion from total PBMCs (AlphaLISA); type: cell-based; conditions: 24 hours
Protocol: Before testing, the proteins were purified. In view thereof, CD14 depletion of PBMCs was not required, since the background induced by the residual contaminants present in the purified proteins is very low. Therefore, the cellular assays of Example 2 to characterize the purified proteins were performed on total PBMCs.
The selected proteins, were tested at concentrations of 0.5, 0.25, 0.1 and 0.025 μM (final concentration) on PBMCs. Cells were seeded in 384 well plates at 72,000 cells/well in a final volume of […] and stimulated with either the purified proteins (10% vol/vol) or the relative controls (positive and negative) for 24 hours in a humidified 5% CO2 atmosphere at 37° C. Samples were tested in duplicate on at least two different PBMCs donors. All the dilutions were made in PBS.
Secretion of IL-10 was measured by AlphaLISA and compared to those of PBS (negative control) and PHA at 10 μg/ml (positive control), essentially as described above.

[1] = tested on: CD14 depleted human peripheral blood mononuclear cells (PBMCs); test: IL-10 screening of microbiota protein library on CD14-depleted PBMCs (AlphaLISA); type: cell-based; conditions: second round of cell-free synthesis, 72 hours
Protocol: IL-10 screening of the microbiota protein library was performed on CD14 depleted human peripheral blood mononuclear cells (PBMCs). This cellular model was chosen to reduce the background due to cell wall components and other bacterial contaminants possibly present in the lysate of the Cell Free synthesis kit on the synthesised (but not purified) proteins.
PBMCs were isolated from buffy coats as follows: 80 ml PBS were added to 50 ml blood; 4 SepMate™-50 IVD tubes (Stemcell Technologies, Vancouver, Canada) were filled with 15 mL of Ficoll® (Ficoll® Paque Plus; Sigma-Aldrich, St. Louis, USA) per donor, then 30 ml of PBS-diluted blood were gently added. Samples were centrifuged for 20 min at 1200 g at room temperature and washed three times with PBS. To lyse the red blood cells, pellets were resuspended in Red Blood Cells Lysis buffer 1X (Miltenyi Biotec, Bergisch Gladbach, Germany) and incubated for 10 min at room temperature. Cells were then washed with MACS buffer and counted.
PBMC depletion was performed using the CD14 Microbeads kit (Miltenyi Biotec, Bergisch Gladbach, Germany) according to the supplier's protocol. […]
IL-10 secretion was measured by AlphaLISA® (IL10 (human) AlphaLISA Detection Kit; PerkinElmer, Waltham MA, USA) on the undiluted supernatants according to the supplier's protocol. Results were expressed as AlphaLISA® signal (Counts). […]

KKGSRSCFFYLPRQGYQKGSRGCFFIYL (NAT_38)
IL-10 secretagogue activity compared with NAT_29 (monocytes): IL-10 secretagogue activity was maintained

B1: ID3166: microbiota protein, 121 amino acids, 14 kDa, SEQ ID NO: 2 (protein)
chain: AFLFTSTGVPKKAAEAAFFLYLNKGTKKGSRSCFFIYLDRGTKKGSRSCFFYLPRQGYQKGSRGCFFIYLDRGTKKGSRGCFFIYLDCEKRAGNVCIRKCRGRYLHKKTPRRYRNAEATCS
modifications: ID3166
IL-10 secretion from PBMCs compared with PHA (positive control) (human PBMCs; 0.5, 0.25, 0.1 and 0.025 μM, PHA at 10 μg/ml): even more effective
IL-10 secretion from PBMCs at the lowest dose tested (human PBMCs; lowest dose 0.025 μM): very high effectivity even at the lowest dose tested
IL-10 secretion from human PBMCs [1]: able to stimulate IL-10 secretion from human PBMCs
